Measured values as given in patent US8507443B2, “Anticancer agent” (The Research Foundation for Microbial Diseases of Osaka …, priority 2005, dated 2013).

Assays:
HB-EGF = HB-EGF (Homo sapiens, UniProt Q99075); experiment: Inhibition of binding of 125I-labeled diphtheria toxin to HB-EGF
Sequence of HB-EGF (Q99075 63-148): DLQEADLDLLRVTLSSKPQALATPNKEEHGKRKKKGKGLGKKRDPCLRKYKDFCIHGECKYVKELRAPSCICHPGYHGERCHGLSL

## GST-DT
HB-EGF
  activity to inhibit the binding of HB-EGF to EGFR: inhibit the binding of HB-EGF to EGFR
  inhibition of the binding of 125I-labeled diphtheria toxin to HB-EGF: in a dose dependent manner
Vero cells
  toxicity of diphtheria toxin: do not have the toxicity of diphtheria toxin substantially
